In patent US20100158922A1:

Biological target: recombinant human IFNγ (human) (UniProt P01579)
Assay: cell-based or functional assay

Chain of recombinant human IFNγ (human) (P01579 24-166 limits assumed): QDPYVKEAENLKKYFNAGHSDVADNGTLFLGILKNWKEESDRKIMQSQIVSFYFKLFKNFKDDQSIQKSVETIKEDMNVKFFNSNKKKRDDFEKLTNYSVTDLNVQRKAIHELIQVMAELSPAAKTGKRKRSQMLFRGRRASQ

- Percentage inhibition of IFNγ-induced reporter gene expression at 0.011 nM scFv: 20%
- Percentage inhibition of IFNγ-induced reporter gene expression at 0.043 nM scFv: 28%
- Percentage inhibition of IFNγ-induced reporter gene expression at 0.17 nM scFv: 36%
- Percentage inhibition of IFNγ-induced reporter gene expression at 0.68 nM scFv: 55%
- Percentage inhibition of IFNγ-induced reporter gene expression at 2.7 nM scFv: 69%
B1: AC1.2R3P7_D3 scFv (scFv, part only; not given: scFv linker, part only)
scFv, part: EVQLLESGGGLVQPGGSLKLSCAASGFTFSSNAMSWVRQAPGKGLEWVSTLTGSGGTAYYADSVEGRFSISRDNSKNTLYLQMNSLRAEDTAVYYCAKGTELVGGGLDNWGQGTLVTVSSNFMLTQPHSLSESPGKTVTISCTGSGGSIATNYVQWYQQRPGSAPTTVIHEDNQRPSGVPDRFSGSIDGSSNSASLTISGLQPEDEADYYCQSYDSDNHHVVFGGGTKLTVLG
